Results: the DeepSol protein solubility set

Assay: soluble on expression in E. coli; label from the status in PepcDB or PDB records

Sequence	soluble on expression in E. coli
MSLTDAILYELHIRDATIHPGSGVSKKGTYKGLMEEGTTGRNGTLTGLSHIKDLGVTHVELLPLYCFGGVDEANPSSAYNWGYNPLYYNAPTGYYATNPSDPYNRIVECKQLIETFHEHGIRVIIDVVYNHVYERELSSFEKLVPGYYFRHGENGMPSNGTGVGNDIASERKMMRKFIVESILYWLTEYNVDGFRFDLMGILDVDTINIIEKEVRNIKRDALLLGEGWDLQTPLPLEEKATLNNAKKMPHIAQFNDQFRDGIKGSTFHINKRGFAFGGYVDCNHLQYIASGSLLSMKETGLFLEPVQSINYVECHDNMTMWDKLMRSNEESEEILKKRHLLATAMVILSQGIPFLHAGQEFYRTKQGNENSYNANDEINQLDWDRKEKEIETVNYIKGLIAIRKEHGAFRLQNADLIKKHMTFLQTSPEVLAYHLEHVESFGPWKEIVVLFNSSLEAKTVQLPKEETWHVLVNEKQAKIEPISSFRGKELRLAPISTYILTIMEGHHHHHH	not soluble
MSLTDDLKVCNQTGVGEAINQIYKDDGRRCEGYESRDKKCLCISDNNTSLYAILSGHNGVTVAENALQEMAAELLLGQLNVCNTDEAVKELIRQSFMSVEKGYFDSINPHVATKTAIQLHLSADGMNQYEISQQFENVLQKLDSLNNALSVGSSAVLALIHRSHLYLGNIGNCRALLCKTDEHDTLTVTQLSVDHNLLNAEEAARLFRLGLMAQNFEGVPLYSTRCIGNYLGKAGYKDCNFLSSATAEPVIFEPEIVGGIQITPACRFLVLMSSGLCRALHEIFPGDASTGNRELVRMISEEFQNQSTLGGVAQSVVHRIVQAHHDTYMQLVEEHRSVTFNSRDDVTLLIRNFNYAEGHHHHHH	not soluble
MSLTDVMFKSQIANQLKNLRKSRGLSLDATAQLTGVSKAMLGQIERGESSPTIATLWKIASGLEASFSAFFANDPQLLSSERSFPDDLNMKIHTLFPYAADTGLEIFEITLLDHHQQMSSPHALGVIEYIHVLEGIMKVFFDEQWHELQQGEHIRFFSDQPHGYAAVTEKAVFQNIVAYPRREGGSHHHHHH	soluble
MSLTEAPRVRLAEAEVFERPVEFRFPFRFGSARVATAPQAFVRVRVEDARGRSAIGWSAEMMMPKWFDKNPGLSPEDNVEQLRASLRLAIEGLTSLQAQTPFGLHAAAEGDHHRAAAGHGLPALVASYGLALLDRAILDALCRMTGASAAGAVRANLPGITGATAPDLEGFDLARFLSRLEPGPRLAVRHTIGLADALTAADLAPGQRLEDGLPQTLEEVIAAYGHRYFKIKVSGRPAEDTRRLLAIAAVLDQRVDAYRVTLDGNEQFENADAVADLLDRIAEEPRLEKLRASALFFEQPIVRAEALSRPVTEVAGRMPLEIDESDGDIGAFLRARALGYAGISSKSCKGFYRALVNRARVEMWNAEAGAARSFMSAEDLTTQSGLALQQDLVLAALVGAGHVERNGHHYVDGMAGAPAAEQAAYLAHHGDLYESGSGRARLAIRGGEITFSTVLRSVGLGSSVEPDWVAMVSEGHHHHHH	not soluble
MSLTETAIENSVTVFHIESDEIKGRIIGREGRNIRALEAATGVEIVVDDTPEAIVLSAFDPVRREIARLALHQLVTDGRIHPARIEEVVAKVRKQVEEEIIETGKRTTIDLGIHGLHPELIRIIGKMKYRSSYGQNLLQHARETANLCAVMASELGLNPKKAKRAGLLHDIGKVPDEEPELPHALLGMKLAEKFKEKPDICNAIGAHHDEIEMTSLLAPIVQVCDAISGARPGARREIVEAYIKRLNDLEQLAMSYPGVTKTYAIQAGRELRVIVGADKIDDKQTENLSGEIAKKIQDEMTYPGQVKITVIRETRAVSFAKEGHHHHHH	soluble
MSLTETCDRFALIGAGPMGLAMAKVMLEQGIAFDGFELHSDVGGLWDIDGPRSTMYESAHLISSKRMTEFTDFPMEEAVAEYPSHRELKRYFHAFAARYGLRDHYRFGAEVLRCEPLGEPGAGWRVIWRDAEGEHTETYAGVMIANGTLSEPNMPTFQGRFDGELIHSSAYRHPSQFDGKRVLIVGAGNSGCDIAVDAIHHGALCDLSMRRGYYFVPKYVFGKPADTLGGMIKLPMWLKRRVDGMILKWFVGDPQKYGFPKPDYQLYESHPVVNSLVLYHAGHGDLRIRPDIDRFDGRRVIFADGSSEEYDMILAATGYKLFYPFIDRDLLNWQGDAPHLYLNALHPERDDLFVLGMIEASGLGWQGRHEQAEMVARYITGLRRGGAAAAELKAAKSAGFERATGGMNYLKLARMAYYVDKATYRGAVTGWIDRLKRAQSEGHHHHHH	soluble
MSLTFHEIRFPEDISYGSTGGPEFSTSIVQTNNGSEYRKVNLSYSRNKYNIMYNMKSEDQLLKLINFFYVHKGKAIGFRFKDWSDYKAKKEHIGIGNDKQKKFQIIKTYSIDQHSYIRKITKPVINTVKIYYDDIEKVDGFSVNFSNGQIEFNTPPHNGVTIYADYEFDVPVRFDSDYLPYSMDNYNEHNCNNIALIEIKTEGHHHHHH	soluble
MSLTGNPPNPAGIKTDYLWKKILTPQGLTDILENYAQVVEEKDEKTGKKKKVQIFPRYHQLDVVRKLLAHAEWHGAGMRYLVQHSAGSGKSNSIAWLAHQLISLKKDDKEIFDSIIVITDRRVLDKQIRDTIKQFAQVGSTVGHAERSGDLRKFIESGKKIIISTVQKFPFILDEIGNEHRGRKFAIIIDEAHSSQGGRTAAAMSEALSDSKDQKDPEDTINDALQKRMEARKMLPNASYFAFTATPKNKTLELFGEPYKDGDKIKHRPFHNYTMKQAIQEGFILDVLRYYTPVNSYYKLIKTVESDPEFDTKKAKKKLRKYVESHDYAIRLKAEIIVDHFQEQVIALNKIGGQARAMVVTNGIERAIQYYHAIRDYLLELNSPYKAIVAFSGEHEYGGVKVTEATLNGFPSSQIEDKIEEEPYRFLICADKFQTGYDEPLLHTMYVDKVLSGIKAVQTLSRLNRAHPKKHDVFVLDFMNDTDTIQDAFSDYYRTTVLSDETDPNKLHDLKSDLDSYQAYSPEQIEQFVELYLGGADRDKLDPILDVCVATYKDHLDEDEQVDFKSKAKAFSRTYGFLASILPYTNADWEKLSIFLNFLIPKLPAPREEDLSKGILEAIDMDSYRVEKQAVVNIQLPDSDSEIEPVPTEAGGFKPEPELDRLSNILKTFNDQFGNIRWTDSDRVHRLITEEIPARVAADVAYQNAKKNSDKQNAKIEHDKALARVMIALMKDDTQLFKLFSDNESFRRTLTDAIFERTYSEGHHHHHH	not soluble
MSLTIEDNHGTEGISLPIEGVAATDNRAFELLDRWGVELVAAPLQLVPFTVTGYTEEGGVANLGSHREPDLEALAAAQPSLIINGQRFAQYYDDIIALNPDATVVELDPRDGEPLDQELIRQAETLGEIFGEEEDAAKIVADFESALERAKTAYAAISDQTVMAVNVSGGNIGYIAPSVGRTYGPIFDLVGLTPALEVGNASSDHEGDDINVEAIAAANPDLILVMDRDGGTSTRNEADYVPAEQIVSDNEALANVKAVTDGYVYYAPADTYTNENIITYTEILNGMADMFEKAAQEGHHHHHH	soluble
MSLTIEDVAKLAGVSIATVSRVINGSGYVSEKTRYKVWKAIEELGYKPEISAKLLASKGKLFNIYVFASKRILSPLQNNGILGEFYGVIIRAIEENCGRLGMNVELKMLENFSESNGADGYIFIGGDLSEKTLKEIKSRKKPFVLVDHYIPGERVDCVISDGYDGAVYATNYLISKGFKRIVHVHGPLHPYGFKMRYDGYKDAMEKAGLMPRFYECDDTEEGTRKVIDIMLNSYGTPEAIFTSNDSIAFWVIKRLKEHNIKVPDDVSVIGFDDIVDAENFDPPLTTLRVFKYEMGCLACKRLHELLTGINPHPVRILVFTQFVKRKSTKEGHHHHHH	not soluble
MSLTIKVFSPKYPTELEEFYAERIADNPLGFIQRLDLLPSISGFVQKLREHGGEFFEMREGNKLIGICGLNPINQTEAELCKFHINSAYQSQGLGQKLYESVEKYAFIKGYTKISLHVSKSQIKACNLYQKLGFVHIKEEDCVVELGEETLIFPTLFMEKILSEGHHHHHH	soluble
MSLTIYVYVLDTLADWEIGYVNSELNSRRFFKKDANRVSLKTVSYSKEPIKTMGGMTIVPDCVIDDIVMSETSVLLLPGADTWNNLEHKAIIKKASELLALNATVAAICGATVALANHGLLDNRPHTSNGAGFLEMFSSSYKGQNSYINELSVWDNNLITASSAGALLWAKQIIAHLDVFESNTLESWYAYFNTGDPKHFYALMESLPDNNEGHHHHHH	soluble
